# Substitutions are numbered along the chain they refer to.
# B1: 228 (protein)
# chain: LDNGLARTPTMGWLHWERFMCNLDCQEEPDSCISEKLFMEMAELMVSEGWKDAGYEYLCIDDCWMAPQRDSEGRLQADPQRFPHGIRQLANYVHSKGLKLGIYADVGNKTCAGFPGSFGYYDIDAQTFADWGVDLLKFDGCYCDSLENLADGYKHMSLALNRTGRSIVYSCEWPLYMWPFQKPNYTEIRQYCNHWRNFADIDDSWASIKSILDWTSFNQERIVDVAGPGGWNDPDMLVIGNFGLSWNQQVTQMALWAIMAAPLFMSNDLRHISPQAKALLQDKDVIAINQDPLGKQGYQLRQGDNFEVWERPLSGLAWAVAMINRQEIGGPRSYTIAVASLGKGVACNPACFITQLLPVKRKLGFYEWTSRLKSHINPTGTVLLQLENTMQMSKDLLL
# modifications: Synthetic Polypeptide sequence of Variant No. 228 of mature Human GLA
# B2: 229 (protein)
# chain: B1 chain with I376V
# modifications: Synthetic Polypeptide sequence of Variant No. 229 of mature Human GLA
# B3: 230 (protein)
# chain: B1 chain with K373R, S374R
# modifications: Synthetic Polypeptide sequence of Variant No. 230 of mature Human GLA
# B4: 231 (protein)
# chain: B1 chain with T369D, K373R
# modifications: Synthetic Polypeptide sequence of Variant No. 231 of mature Human GLA
# B5: 232 (protein)
# chain: B1 chain with T369S, K373R
# modifications: Synthetic Polypeptide sequence of Variant No. 232 of mature Human GLA
# B6: 192 (protein)
# chain: B1 chain with A206E, K373R
# modifications: Synthetic Polypeptide sequence of Variant No. 192 of mature Human GLA
# B7: 193 (protein)
# chain: B1 chain with A206G, K373R
# modifications: Synthetic Polypeptide sequence of Variant No. 193 of mature Human GLA
# B8: 391 (protein)
# chain: LDNGLARTPTMGWLHWERFMCNLDCQEEPDSCISEKLFMEMAERMVSEGWKDAGYEYLCIDDCWMAPQRDSEGRLQADPQRFPHGIRQLANYWHSKGLKLGIYADVGNKTCAGFPGSFGYYDIDAQTFADWGVDLLKFDGCYCDSLENLADGYKHMSLALNRTGRSIVYSCEWPLYMWPFQKPNYTEIRQYCNHWRNFADIDDSWKSIKSILDWTSRNQERIVDVAGPGGWNDPDMLVIGNFGLSWDQQVTQMALWAIMAAPLFMSNDLRHISPQAKALLQDKDVIAINQDPLGKQGYQLRKGDNFEVWERPLSGDAWAVAIINRQEIGGPRSYTIPVASLGKGVACNPACFITQLLPVKRQLGFYNWTSRLKSHINPTGTVLLQLENTMQMSLKDLL
# modifications: Synthetic Polypeptide sequence of Variant No. 391 of mature Human GLA
# B9: 392 (protein)
# chain: B8 chain with W93T
# modifications: Synthetic Polypeptide sequence of Variant No. 392 of mature Human GLA
# B10: 393 (protein)
# chain: B8 chain with W93G
# modifications: Synthetic Polypeptide sequence of Variant No. 393 of mature Human GLA
# B11: 394 (protein)
# chain: B8 chain with W93R
# modifications: Synthetic Polypeptide sequence of Variant No. 394 of mature Human GLA
# B12: 395 (protein)
# chain: B8 chain with Y92H, W93V, K206A
# modifications: Synthetic Polypeptide sequence of Variant No. 395
# B13: 396 (protein)
# chain: B8 chain with W93V, L158M
# modifications: Synthetic Polypeptide sequence of Variant No. 396 of mature Human GLA
# B14: 397 (protein)
# chain: B8 chain with W93V, L158R
# modifications: Synthetic Polypeptide sequence of Variant No. 397 of mature Human GLA
# Experiment: HTP-analysis of yeast culture supernatants, no challenge (MUGal hydrolysis)
# Type: biochemical
# Conditions: activity of the variant/activity of Rd2BB (SEQ ID NO: 10), yeast supernatant
# Procedure, shortened: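 Activity read as 4-methylumbelliferyl α-D-galactopyranoside hydrolysis: fluorescence (355/448 nm) after sodium carbonate stop, following 30-180 min at 37° C with 2 mM MUGal stock at pH 4.6–4.8. Enzyme source is unchallenged culture supernatant of INVSc1 yeast expressing GLA variants, grown 66-84 h at 30° C.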
row,Molecule,Relative Activity of GLA Variants After No Challenge (NC)
1,B1,+ (+ = 0.5 to 1.5 relative activity over Rd2BB (SEQ ID NO: 10))
2,B2,+ (+ = 0.5 to 1.5 relative activity over Rd2BB (SEQ ID NO: 10))
3,B3,+ (+ = 0.5 to 1.5 relative activity over Rd2BB (SEQ ID NO: 10))
4,B4,++ (++ = 1.5 to 2.5 relative activity over Rd2BB (SEQ ID NO: 10))
5,B5,++ (++ = 1.5 to 2.5 relative activity over Rd2BB (SEQ ID NO: 10))
6,B6,+ (+ = 0.5 to 1.5 relative activity over Rd2BB (SEQ ID NO: 10))
7,B7,+ (+ = 0.5 to 1.5 relative activity over Rd2BB (SEQ ID NO: 10))

# Same assay, conditions: activity of the variant/activity of Rd4BB (SEQ ID NO: 15)
row,Molecule,Relative Activity of GLA Variants After No Challenge (NC)
1,B8,+ (0.5 to 1.5 relative activity over Rd4BB (SEQ ID NO: 15))
2,B9,+ (0.5 to 1.5 relative activity over Rd4BB (SEQ ID NO: 15))
3,B10,+ (0.5 to 1.5 relative activity over Rd4BB (SEQ ID NO: 15))
4,B11,+ (0.5 to 1.5 relative activity over Rd4BB (SEQ ID NO: 15))
5,B12,+ (0.5 to 1.5 relative activity over Rd4BB (SEQ ID NO: 15))
6,B13,+ (0.5 to 1.5 relative activity over Rd4BB (SEQ ID NO: 15))
7,B14,+ (0.5 to 1.5 relative activity over Rd4BB (SEQ ID NO: 15))

# Experiment: HTP-analysis of supernatants pretreated with acid (MUGal hydrolysis)
# Type: biochemical
# Conditions: activity of the variant/activity of Rd4BB (SEQ ID NO: 15); challenge at pH 3.7
# Procedure, shortened: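 Yeast INVSc1 supernatant, GLA variants; acid challenge: McIlvaine pH 3.3-4.3, 37° C., 1-3 h. Assay: MUGal in McIlvaine pH 4.8 plus citrate pH 4.3, 37° C., 30-180 min, Na2CO3 stop, Ex 355/Em 448 nm.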
row,Molecule,Relative Activity of GLA Variants After Challenge at pH 3.7
1,B8,+ (0.5 to 1.5 relative activity over Rd4BB (SEQ ID NO: 15))
2,B9,+ (0.5 to 1.5 relative activity over Rd4BB (SEQ ID NO: 15))
3,B10,− (<0.5 relative activity over Rd4BB (SEQ ID NO: 15))
4,B11,+ (0.5 to 1.5 relative activity over Rd4BB (SEQ ID NO: 15))
5,B12,+ (0.5 to 1.5 relative activity over Rd4BB (SEQ ID NO: 15))
6,B13,+ (0.5 to 1.5 relative activity over Rd4BB (SEQ ID NO: 15))
7,B14,+ (0.5 to 1.5 relative activity over Rd4BB (SEQ ID NO: 15))

# Same assay, conditions: challenge at pH 4.2; activity of the variant/activity of Rd2BB (SEQ ID NO: 10); yeast supernatant
row,Molecule,Relative Activity of GLA Variants After Challenge at pH 4.2
1,B1,+ (+ = 0.5 to 1.5 relative activity over Rd2BB (SEQ ID NO: 10))
2,B2,− (− = <0.5 relative activity over Rd2BB (SEQ ID NO: 10))
3,B3,− (− = <0.5 relative activity over Rd2BB (SEQ ID NO: 10))
4,B4,++ (++ = 1.5 to 2.5 relative activity over Rd2BB (SEQ ID NO: 10))
5,B5,++ (++ = 1.5 to 2.5 relative activity over Rd2BB (SEQ ID NO: 10))
6,B6,+ (+ = 0.5 to 1.5 relative activity over Rd2BB (SEQ ID NO: 10))
7,B7,+ (+ = 0.5 to 1.5 relative activity over Rd2BB (SEQ ID NO: 10))

# Experiment: HTP-analysis of supernatants pretreated with base (MUGal hydrolysis)
# Type: biochemical
# Conditions: activity of the variant/activity of Rd4BB (SEQ ID NO: 15); challenge at pH 9.65
# Procedure, shortened: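 GLA variants secreted from yeast INVSc1; culture supernatants pre-incubated with McIlvaine buffer pH 7.0–8.2 or 200 mM bicarbonate pH 9.1–9.7 at 37° C. for 1–18 h. Residual activity: MUGal (4 mM stock) hydrolysis at pH 4.3–4.8, 37° C., 30–180 min, carbonate quench; fluorescence Ex 355/Em 448 nm.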
row,Molecule,Relative Activity of GLA Variants After Challenge at pH 9.65
1,B8,− (<0.5 relative activity over Rd4BB (SEQ ID NO: 15))
2,B9,− (<0.5 relative activity over Rd4BB (SEQ ID NO: 15))
3,B10,− (<0.5 relative activity over Rd4BB (SEQ ID NO: 15))
4,B11,− (<0.5 relative activity over Rd4BB (SEQ ID NO: 15))
5,B12,+ (0.5 to 1.5 relative activity over Rd4BB (SEQ ID NO: 15))
6,B13,+ (0.5 to 1.5 relative activity over Rd4BB (SEQ ID NO: 15))
7,B14,+ (0.5 to 1.5 relative activity over Rd4BB (SEQ ID NO: 15))

# Same assay, conditions: challenge at pH 7.6; activity of the variant/activity of Rd2BB (SEQ ID NO: 10); yeast supernatant
row,Molecule,Relative Activity of GLA Variants After Challenge at pH 7.6
1,B1,+ (+ = 0.5 to 1.5 relative activity over Rd2BB (SEQ ID NO: 10))
2,B2,+ (+ = 0.5 to 1.5 relative activity over Rd2BB (SEQ ID NO: 10))
3,B3,+ (+ = 0.5 to 1.5 relative activity over Rd2BB (SEQ ID NO: 10))
4,B4,++ (++ = 1.5 to 2.5 relative activity over Rd2BB (SEQ ID NO: 10))
5,B5,++ (++ = 1.5 to 2.5 relative activity over Rd2BB (SEQ ID NO: 10))
6,B6,+ (+ = 0.5 to 1.5 relative activity over Rd2BB (SEQ ID NO: 10))
7,B7,+ (+ = 0.5 to 1.5 relative activity over Rd2BB (SEQ ID NO: 10))

# Source: patent publication US11278600B2, “Human alpha-galactosidase variants” (Codexis, Inc., priority 2014, dated 2022)
